Measurements from IntAct's records for PubMed 19696741.

B1: Carboxypeptidase Y (Saccharomyces cerevisiae), P00729 (parent)
chain: MKAFTSLLCGLGLSTTLAKAISLQRPLGLDKDVLLQAAEKFGLDLDLDHLLKELDSNVLDAWAQIEHLYPNQVMSLETSTKPKFPEAIKTKKDWDFVVKNDAIENYQLRVNKIKDPKILGIDPNVTQYTGYLDVEDEDKHFFFWTFESRNDPAKDPVILWLNGGPGCSSLTGLFFELGPSSIGPDLKPIGNPYSWNSNATVIFLDQPVNVGFSYSGSSGVSNTVAAGKDVYNFLELFFDQFPEYVNKGQDFHIAGESYAGHYIPVFASEILSHKDRNFNLTSVLIGNGLTDPLTQYNYYEPMACGEGGEPSVLPSEECSAMEDSLERCLGLIESCYDSQSVWSCVPATIYCNNAQLAPYQRTGRNVYDIRKDCEGGNLCYPTLQDIDDYLNQDYVKEAVGAEVDHYESCNFDINRNFLFAGDWMKPYHTAVTDLLNQDLPILVYAGDKDFICNWLGNKAWTDVLPWKYDEEFASQKVRNWTASITDEVAGEVKSYKHFTYLRVFNGGHMVPFDVPENALSMVNEWIHGGFSL
partner: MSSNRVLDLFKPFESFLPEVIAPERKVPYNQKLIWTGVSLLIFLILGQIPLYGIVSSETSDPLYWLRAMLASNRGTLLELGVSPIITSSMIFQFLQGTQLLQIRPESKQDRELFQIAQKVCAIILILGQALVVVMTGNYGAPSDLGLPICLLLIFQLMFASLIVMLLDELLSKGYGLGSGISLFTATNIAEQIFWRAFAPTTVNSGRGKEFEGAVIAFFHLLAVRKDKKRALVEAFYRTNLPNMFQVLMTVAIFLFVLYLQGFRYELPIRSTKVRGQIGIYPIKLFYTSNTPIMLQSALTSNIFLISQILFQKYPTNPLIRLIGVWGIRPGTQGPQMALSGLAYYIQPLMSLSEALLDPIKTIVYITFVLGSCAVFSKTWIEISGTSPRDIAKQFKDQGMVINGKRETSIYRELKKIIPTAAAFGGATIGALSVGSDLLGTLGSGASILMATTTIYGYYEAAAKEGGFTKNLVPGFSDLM

Variants of: B1
Conditions: with sc61a_yeast SEC61, P32915

effect of a mutation on the interaction | Variant
increasing interaction | MKAFTSLLCGLGLSTTLAKAISLQRPLGLDKDVLLQAAEKFGLDLDLDHLLKELDSNVLDAWAQIEHLYPNQVMSLETSTKPKFPEAIKTKKDWDFVVKNDAIENYQLRVNKIKDPKILGIDPNVTQYTGYLDVEDEDKHFFFWTFESRNDPAKDPVILWLNGGPGCSSLTGLFFELGPSSIGPDLKPIGNPYSWNSNATVIFLDQPVNVGFSYSGSSGVSNTVAAGKDVYNFLELFFDQFPEYVNKGQDFHIARESYAGHYIPVFASEILSHKDRNFNLTSVLIGNGLTDPLTQYNYYEPMACGEGGEPSVLPSEECSAMEDSLERCLGLIESCYDSQSVWSCVPATIYCNNAQLAPYQRTGRNVYDIRKDCEGGNLCYPTLQDIDDYLNQDYVKEAVGAEVDHYESCNFDINRNFLFAGDWMKPYHTAVTDLLNQDLPILVYAGDKDFICNWLGNKAWTDVLPWKYDEEFASQKVRNWTASITDEVAGEVKSYKHFTYLRVFNGGHMVPFDVPENALSMVNEWIHGGFSL [G255R]
